Reference: US7214517B2, “α1,2-fucosyltransferase and DNA encoding the same” (Kyowa Hakko Kogyo Co., Ltd., priority 2001, dated 2007)

Columns and labels:
[1] = Production of fucose-containing carbohydrate from different acceptor carbohydrates, wet cells as enzyme source (Example 7); assay type: biochemical; settings: conclusion from Table 1
Description: (§1) Escherichia coli DH5α/pHMFT80 obtained in Example 5 was inoculated on 8 ml of LB medium [containing 10 g/l bacto tryptone (manufactured by Difco), 10 g/l yeast extract (manufactured by Difco) and 5 g/l NaCl] containing 50 μg/ml ampicillin in a test tube, and cultured at 30° C. for 12 hours. The culture was inoculated into 8 ml of LB medium containing 50 μg/ml ampicillin, with an inoculum size of 5%, and cultured at 30° C. for 2 hours. Then, isopropyl-β-D-thiogalactopyranoside was added thereto at a final concentration of 1 mmol/l, and further cultured at 30° C. for 8 hours. Wet cells were obtained by centrifuging 1 ml of the culture. Since the wet cells can be stored at −20° C., if necessary, it was able to use them by thawing-prior to use.
(§2) The reaction was carried out at 32° C. for 9 hours in 0.1 ml of a reaction solution composed of the wet cells of Escherichia coli DH5α/pHMFT80 prepared from 1 ml of the culture, 50 mmol/l of a citrate buffer (pH 7.0), 10 mmol/l MnCl2, 10 mmol/l lactose, 10 mmol/l GDP-fucose and 4 g/l Nymeen S-215.
• Column: CarboPAC PA10 • Eluent:. A; H2O, B; 500 mmol/l NaOH • Gradient: Concentration of the eluent B at 0 minute is adjusted to 8% and increased to 20% spending 21 minutes. • Detector: Pulsed amperometry detector
Escherichia coli DH5α/pHMFT80 and Escherichia coli DH5α/pHPFT80 respectively obtained in. […]

[2] = Production of fucosyllactose in the presence or absence of GDP (feedback inhibition, Example 8); assay type: biochemical; settings: conclusion from Table 2
Description: as §1, §2
Fucosyllactose was produced in a similar manner described in Example 7 in the presence or absence of 5 mmol/l guanosine 5′-diphosphate (GDP) using lactose as an acceptor carbohydrate.

B1: Helicobacter mustelae-derived α1,2-fucosyltransferase: Protein comprising the amino acid sequence of SEQ ID NO:1, from Helicobacter mustelae ATCC 43772 (protein, listed as Helicobacter mustelae)
chain: MDFKIVQVHGGLGNQMFQYAFAKSLQTHLNIPVLLDTTWFDYGNRELGLHLFPIDLQCASAQQIAAAHMQNLPRLVRGALRRMGLGRVSKEIVFEYMPELFEPSRIAYFHGYFQDPRYFEDISPLIKQTFTLPHPTEHAEQYSRKLSQILAAKNSVFVHIRRGDYMRLGWQLDISYQLRAIAYMAKRVQNLELFLFCEDLEFVQNLDLGYPFVDMTTRDGAAHWDMMLMQSCKHGIITNSTYSWWAAYLIKNPEKIIIGPSHWIYGNENILCKDWVKIESQFETKS
- activity compared to Helicobacter pylori-derived α1,2-fucosyltransferase [1]: higher activity
- substrate specificity compared to Helicobacter pylori-derived α1,2-fucosyltransferase [1]: higher substrate specificity to lactose
- sensitivity to feedback inhibition by GDP compared to Helicobacter pylori-derived α1,2-fucosyltransferase [2]: more insensitive to feedback inhibition by GDP
